From paper PMC7950132 (Molecular & Cellular Proteomics : MCP, 2021)

Target: T1, CUL5(NEDD8) (human, UniProt Q93034 1-780; Q15843 1-76, NEDD8 attached at K724)
T1 construct: cullin 5, human; NEDD8, human, conjugated to CUL5; Always present together with RBX2 and ELOB/C in the experiments; written alone for the pairs inside the complexes; The His tag on CUL5 served the Ni-NTA step before TEV cleavage; also called neddylated CUL5; source: E. coli BL21, coexpressed with RBX2 and ELOB/C, neddylated in mixed lysates, purified (Ni-NTA, SEC); not shown: His6, N-terminal, …
Experiment: SEC; ARIH2 mixed with an equimolar amount of ELOB/C-CUL5(NEDD8)-RBX2 or ELOB/C-CUL5-RBX2, separated by size exclusion; fractions on SDS-PAGE
Conditions: both partners purified

T1 sequence (Q93034 whole entry, chain 1 of 2): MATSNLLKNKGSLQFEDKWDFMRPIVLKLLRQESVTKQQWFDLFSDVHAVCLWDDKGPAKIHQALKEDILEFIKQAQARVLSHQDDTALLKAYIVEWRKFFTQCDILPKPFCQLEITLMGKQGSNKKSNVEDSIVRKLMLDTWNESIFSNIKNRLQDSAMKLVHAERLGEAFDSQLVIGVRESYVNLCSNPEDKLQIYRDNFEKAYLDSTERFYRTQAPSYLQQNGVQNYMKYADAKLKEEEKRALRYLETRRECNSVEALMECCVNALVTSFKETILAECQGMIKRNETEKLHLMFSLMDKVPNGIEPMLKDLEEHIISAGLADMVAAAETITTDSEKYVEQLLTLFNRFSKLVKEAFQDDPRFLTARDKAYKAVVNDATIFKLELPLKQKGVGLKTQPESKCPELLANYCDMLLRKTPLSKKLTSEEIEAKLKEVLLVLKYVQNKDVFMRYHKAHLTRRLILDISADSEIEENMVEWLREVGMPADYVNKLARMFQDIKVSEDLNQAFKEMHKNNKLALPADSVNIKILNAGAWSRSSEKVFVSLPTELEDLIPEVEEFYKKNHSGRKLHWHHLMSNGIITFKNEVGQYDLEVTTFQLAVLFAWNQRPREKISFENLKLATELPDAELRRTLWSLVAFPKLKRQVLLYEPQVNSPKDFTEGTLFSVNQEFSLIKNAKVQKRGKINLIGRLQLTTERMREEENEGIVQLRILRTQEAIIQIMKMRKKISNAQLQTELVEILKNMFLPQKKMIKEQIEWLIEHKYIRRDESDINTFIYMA
T1 sequence (Q15843 1-76, chain 2 of 2): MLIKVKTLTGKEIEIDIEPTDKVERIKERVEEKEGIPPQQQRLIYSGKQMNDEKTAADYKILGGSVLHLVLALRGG

binding result: binds
B1: Ariadne RBR E3 ubiquitin protein ligase 2 (ARIH2) (enzyme, human, UniProt O95376 1-493, looked up)
chain: MSVDMNSQGSDSNEEDYDPNCEEEEEEEEDDPGDIEDYYVGVASDVEQQGADAFDPEEYQFTCLTYKESEGALNEHMTSLASVLKVSHSVAKLILVNFHWQVSEILDRYKSNSAQLLVEARVQPNPSKHVPTSHPPHHCAVCMQFVRKENLLSLACQHQFCRSCWEQHCSVLVKDGVGVGVSCMAQDCPLRTPEDFVFPLLPNEELREKYRRYLFRDYVESHYQLQLCPGADCPMVIRVQEPRARRVQCNRCNEVFCFKCRQMYHAPTDCATIRKWLTKCADDSETANYISAHTKDCPKCNICIEKNGGCNHMQCSKCKHDFCWMCLGDWKTHGSEYYECSRYKENPDIVNQSQQAQAREALKKYLFYFERWENHNKSLQLEAQTYQRIHEKIQERVMNNLGTWIDWQYLQNAAKLLAKCRYTLQYTYPYAYYMESGPRKKLFEYQQAQLEAEIENLSWKVERADSYDRGDLENQMHIAEQRRRTLLKDFHDT
notes: ARIH2, human, codon-optimised synthetic gene; also called ARIH2 RBRL; source: E. coli BL21, purified (Ni-NTA, SEC); not shown: His6, N-terminal, cleaved; MBP, N-terminal, cleaved
